Assay results as given in US20190202883A1 (Takeda / Millennium, published 2019).
Square brackets hold non-standard residues; d marks the D form. Side chains are listed from the residue outwards. Phe(2-F) = N[C@@H](Cc1ccccc1F)C(=O)O; αMeF = C[C@](N)(Cc1ccccc1)C(=O)O; Iva = CC[C@](C)(N)C(=O)O; Oda = not defined here; Aib = CC(C)(N)C(=O)O

Experiments:
Test in all cases: cell-based or functional assay
human NPY2R = target: T1, human NPY2R (human, UniProt P49146 1-381)
T1 sequence (looked up): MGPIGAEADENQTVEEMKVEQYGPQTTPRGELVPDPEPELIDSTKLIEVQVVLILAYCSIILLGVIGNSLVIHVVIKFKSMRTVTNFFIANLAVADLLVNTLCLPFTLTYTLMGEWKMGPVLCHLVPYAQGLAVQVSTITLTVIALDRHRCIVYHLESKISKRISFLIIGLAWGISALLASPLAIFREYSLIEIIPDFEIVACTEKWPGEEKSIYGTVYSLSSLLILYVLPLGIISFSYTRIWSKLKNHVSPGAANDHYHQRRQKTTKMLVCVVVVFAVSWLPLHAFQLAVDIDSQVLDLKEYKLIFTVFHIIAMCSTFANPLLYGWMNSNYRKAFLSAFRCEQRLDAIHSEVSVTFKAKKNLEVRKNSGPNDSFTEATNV

human GLP-1R = human GLP-1R (human, UniProt P43220 24-463)
human GIPR = target: T2, human GIPR (human, UniProt P48546 22-466)
T2 sequence (looked up): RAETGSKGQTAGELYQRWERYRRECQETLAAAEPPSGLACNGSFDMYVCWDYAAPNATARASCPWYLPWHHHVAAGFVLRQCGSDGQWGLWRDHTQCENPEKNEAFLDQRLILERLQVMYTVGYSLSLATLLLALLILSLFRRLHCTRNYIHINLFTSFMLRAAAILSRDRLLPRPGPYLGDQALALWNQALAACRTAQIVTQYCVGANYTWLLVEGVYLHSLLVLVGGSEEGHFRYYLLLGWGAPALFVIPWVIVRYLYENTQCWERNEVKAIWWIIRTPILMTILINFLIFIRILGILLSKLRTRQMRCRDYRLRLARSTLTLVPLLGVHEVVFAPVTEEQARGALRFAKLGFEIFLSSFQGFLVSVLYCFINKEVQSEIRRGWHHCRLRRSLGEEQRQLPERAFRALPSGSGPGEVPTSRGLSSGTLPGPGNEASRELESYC

| Binder | Agonist activity (EC50), Cre-luc reporter assay (human NPY2R) [nM] | Agonist activity (EC50), Cre-luc reporter assay (human GLP-1R) [nM] | Agonist activity (EC50), Cre-luc reporter assay (human GIPR) [nM] |
| --- | --- | --- | --- |
| Me-Y[Aib]EGT[αMeF]TSDK([Gly-Gly-Gly-Gly-Pal])[Aib]K[Aib]LDKQRQ[Iva]EFVRHLLNK[Aib]TRQRY-NH2 | 0.068 | 0.069 | 0.051 |
| Me-Y[Aib]EGT[αMeF]TSDK([Gly-Gly-Gly-Gly-Pal])AI[Aib]LDKQRQ[Iva]EFVRHLLNK[Aib]TRQRY-NH2 | 0.1 | 0.1 | 0.074 |
| H-Y[Aib]EGT[αMeF]TSDK([Gly-Gly-Gly-Gly-Oda])[Aib]I[Aib]LDKQAQ[Iva]EFVRHLLNK[Aib]TRQR[Phe(2-F)]-NH2 (reading uncertain; also: printed as H-Tyr-Aib-Glu-Gly-Thr-αMePhe-Thr-Ser-Asp-Lys(-Gly-Gly-Gly-Gly-Oda)-Aib-Ile-Aib-Leu-Asp-Lys-Gln-Ala-Gln-Iva-Glu-Phe-Val-Arg-His-Leu-Leu-Asn-Lys-Aib-Thr-Arg-Gln-Arg-Phe(2-F)-NH2) | 2.1 | 0.11 | 0.071 |
| H-Y[Aib]EGT[αMeF]TSDK([Gly-Gly-Gly-Gly-Pal])SK[Aib]LDKQRQ[Iva]EFVRHLLNK[Aib]TRQRY-NH2 | 0.059 | 0.13 | 0.091 |
| H-Y[Aib]EGT[αMeF]TSDK([Gly-Gly-Gly-Gly-Pal])AI[Aib]LDKQRQ[Iva]EFVRHLLNK[Aib]TRQRY-NH2 | 0.099 | 0.079 | 0.066 |
| Me-Y[Aib]EGT[αMeF]TSDK([Gly-Gly-Gly-Gly-Oda])AI[Aib]LDKQRQ[Iva]EFVRHLLNK[Aib]TRQRY-NH2 (reading uncertain; also: printed as Me-Tyr-Aib-Glu-Gly-Thr-αMePhe-Thr-Ser-Asp-Lys(-Gly-Gly-Gly-Gly-Oda)-Ala-Ile-Aib-Leu-Asp-Lys-Gln-Arg-Gln-Iva-Glu-Phe-Val-Arg-His-Leu-Leu-Asn-Lys-Aib-Thr-Arg-Gln-Arg-Tyr-NH2) | 3.2 | 4.4 | 0.17 |
| H-Y[Aib]EGT[αMeF]TSDK([Gly-Gly-Gly-Gly-Pal])[Aib]K[Aib]LDKQRQ[Iva]EFVRHLLNK[Aib]TRQRY-NH2 | 0.064 | 0.06 | 0.044 |
| Me-Y[Aib]EGT[αMeF]TSDK([Gly-Gly-Gly-Gly-Oda])SI[Aib]LDKQRQ[Iva]EFVRHLLNK[Aib]TRQRY-NH2 (reading uncertain; also: printed as Me-Tyr-Aib-Glu-Gly-Thr-αMePhe-Thr-Ser-Asp-Lys(-Gly-Gly-Gly-Gly-Oda)-Ser-Ile-Aib-Leu-Asp-Lys-Gln-Arg-Gln-Iva-Glu-Phe-Val-Arg-His-Leu-Leu-Asn-Lys-Aib-Thr-Arg-Gln-Arg-Tyr-NH2) | 2.4 | 1.9 | 0.091 |
| Me-Y[Aib]EGT[αMeF]TSDK([Gly-Gly-Gly-Gly-Oda])[Aib]I[Aib]LDKQRQ[Iva]EFVRHLLNK[Aib]TRQRY-NH2 (reading uncertain; also: printed as Me-Tyr-Aib-Glu-Gly-Thr-αMePhe-Thr-Ser-Asp-Lys(-Gly-Gly-Gly-Gly-Oda)-Aib-Ile-Aib-Leu-Asp-Lys-Gln-Arg-Gln-Iva-Glu-Phe-Val-Arg-His-Leu-Leu-Asn-Lys-Aib-Thr-Arg-Gln-Arg-Tyr-NH2) | 2 | 1.4 | 0.25 |
| H-Y[Aib]EGT[αMeF]TSDK([Gly-Gly-Gly-Gly-Pal])SI[Aib]LDKQRQ[Iva]EFVRHLLNK[Aib]TRQRY-NH2 | 0.048 | 0.05 | 0.056 |
| H-Y[Aib]EGT[αMeF]TSDK([Gly-Gly-Gly-Gly-Oda])AI[Aib]LDKQRQ[Iva]EFVRHLLNK[Aib]TRQRY-NH2 (reading uncertain; also: printed as H-Tyr-Aib-Glu-Gly-Thr-αMePhe-Thr-Ser-Asp-Lys(-Gly-Gly-Gly-Gly-Oda)-Ala-Ile-Aib-Leu-Asp-Lys-Gln-Arg-Gln-Iva-Glu-Phe-Val-Arg-His-Leu-Leu-Asn-Lys-Aib-Thr-Arg-Gln-Arg-Tyr-NH2) | 3 | 1.2 | 0.26 |
| H-Y[Aib]EGT[αMeF]TSDK([Gly-Gly-Gly-Gly-Oda])SK[Aib]LDKQRQ[Iva]EFVRHLLNK[Aib]TRQRY-NH2 (reading uncertain; also: printed as H-Tyr-Aib-Glu-Gly-Thr-αMePhe-Thr-Ser-Asp-Lys(-Gly-Gly-Gly-Gly-Oda)-Ser-Lys-Aib-Leu-Asp-Lys-Gln-Arg-Gln-Iva-Glu-Phe-Val-Arg-His-Leu-Leu-Asn-Lys-Aib-Thr-Arg-Gln-Arg-Tyr-NH2) | 1.3 | 1.3 | 0.61 |
| H-Y[Aib]EGT[αMeF]TSDK([Gly-Gly-Gly-Gly-Oda])[Aib]K[Aib]LDKQRQ[Iva]EFVRHLLNK[Aib]TRQRY-NH2 (reading uncertain; also: printed as H-Tyr-Aib-Glu-Gly-Thr-αMePhe-Thr-Ser-Asp-Lys(-Gly-Gly-Gly-Gly-Oda)-Aib-Lys-Aib-Leu-Asp-Lys-Gln-Arg-Gln-Iva-Glu-Phe-Val-Arg-His-Leu-Leu-Asn-Lys-Aib-Thr-Arg-Gln-Arg-Tyr-NH2) | 1.5 | 0.94 | 1 |
| H-Y[Aib]EGT[αMeF]TSDK([Gly-Gly-Gly-Gly-Pal])[Aib]I[Aib]LDKQRQ[Iva]EFVRHLLNK[Aib]TRQR[Phe(2-F)]-NH2 | 0.22 | 0.38 | 0.35 |
| Me-Y[Aib]EGT[αMeF]TSDK([Gly-Gly-Gly-Gly-Pal])SI[Aib]LDKQRQ[Iva]EFVRHLLNK[Aib]TRQRY-NH2 | 0.081 | 0.049 | 0.05 |
| H-Y[Aib]EGT[αMeF]TSDK([Gly-Gly-Gly-Gly-Oda])SI[Aib]LDKQRQ[Iva]EFVRHLLNK[Aib]TRQRY-NH2 (reading uncertain; also: printed as H-Tyr-Aib-Glu-Gly-Thr-αMePhe-Thr-Ser-Asp-Lys(-Gly-Gly-Gly-Gly-Oda)-Ser-Ile-Aib-Leu-Asp-Lys-Gln-Arg-Gln-Iva-Glu-Phe-Val-Arg-His-Leu-Leu-Asn-Lys-Aib-Thr-Arg-Gln-Arg-Tyr-NH2) | 2.6 | 0.47 | 0.11 |
